Consider two substances from publication PMC6176576.

The target in the test is mtPaf1 (subunit of the four-subunit mtPaf1 complex) (Myceliophthora thermophila). Put plainly: co-purification, SDS/PAGE.

With “mtCdc73 (subunit of the four-subunit mtPaf1 complex) (natural protein)”, the stoichiometry N is 1. Substance “mtLeo1 (subunit of the four-subunit mtPaf1 complex) (natural protein)” displayed a stoichiometry N of 1.
